Laboratory results as given in article PMC2518858.

Legend:
[1] = target: MC179, the CD36-binding portion (M2 subdomain) of the CIDR1α domain of PfEMP1 from the Malayan Camp (MC) strain of P. falciparum (Plasmodium falciparum (Malayan Camp strain)); experiment: cross-linking; chemical cross-linking of MC179 in solution (data not shown)
[2] = target: MC179, the CD36-binding portion (M2 subdomain) of the CIDR1α domain of PfEMP1 from the Malayan Camp (MC) strain of P. falciparum (Plasmodium falciparum (Malayan Camp strain)); experiment: SEC; refolded MC179 on a Superdex 75 size exclusion column; species with the mobility of dimers separated from monomers

“MC179, the CD36-binding portion (M2 subdomain) of the CIDR1α domain of PfEMP1 from the Malayan Camp (MC) strain of P. falciparum (domain or fragment)” showed a stoichiometry N [1] of 2 and a stoichiometry N [2] of 2.
